Among the data in article PMC12724136, “Design of antibody structure-guided epitope vaccines in silico to induce potent immune responses against emerging viruses” (Journal of Virology, 2025) are response (Binding activity) and EC50 (lg EC50 (µg/mL)) values, retold here.

The chains are these.
B1: unnamed (parent)
chain 1: MSHRLTCAYSGFSSDIHAVWVRQAAGKGLEWIAYISDSSAYIYYSQSVRGRFTISRDNSRKQVYLQMNSLTTEDSAVYYCTREGSGFAFDYWGKGTGGGGSGGGGSGGGGSVTISATGSSNIGADLSWYLQKTGETPKLLIYKASTRSSGTPPRFSGSTSGSQYTLTISGVQAEDAGDYYCLGDHGGGALTFGGGTK
chain 2: DAIGMGSIGVMLAYMVRRKC
B2: unnamed (parent)
chain 1: B1 chain 1
chain 2: GYQLASEIRGTIPLSS
B3: unnamed (parent)
chain 1: B1 chain 1
chain 2: NIEWGDEVDLEM

In the first assay the parent is B1. Nature of the assay: indirect ELISA. To be noted: with partner chain of the complex shown, scFv1 protein 50 µg/mL, value read at the highest peptide concentration, parent: 0.98, read off a plot. Background: ELISA stands for enzyme-linked immunosorbent assay.
With chain 2 DAIGMGAIGAMLAYMVARKC [chain 2 S7A V10A R17A], the response (Binding activity) was determined as 0.46.

The assay is the same for the next values; noted with them: with partner chain of the complex shown; peptides 50 µg/mL; scFv1 group of bars; parent: 0.98; read off a plot.
Take chain 2 DAIGMGAIGAMLAYMVARKC [chain 2 S7A V10A R17A]: the response (Binding activity) was determined as 0.55.

The same assay, now with this note: with partner chain of the complex shown; scFv1 50 µg/mL.
chain 2 DAIGMGAIGAMLAYMVARKC [chain 2 S7A V10A R17A]: the EC50 (lg EC50 (µg/mL)) amounted to 3.96.

The same assay, now with this note: with partner chain of the complex shown; scFv1 50 µg/mL; value read at the highest peptide concentration, log10 = 2 (µg/mL); parent: 0.95; read off a plot.
Take chain 2 DAIGMGAIGAMLAYMVARKC [chain 2 S7A V10A R17A]: the response (Binding activity) stood at 0.47.

In another assay the parent is B2. Nature of the assay: indirect ELISA. To be noted: with partner chain of the complex shown, scFv1 protein 50 µg/mL, value read at the highest peptide concentration, parent: 1.6, read off a plot.
Take chain 2 GAQLASEIAGTIPASS [chain 2 Y2A R9A L14A]: the response (Binding activity) worked out at 0.63.

The same assay, now with this note: with partner chain of the complex shown; peptides 50 µg/mL; scFv1 group of bars; parent: 1.6; read off a plot.
chain 2 GAQLASEIAGTIPASS [chain 2 Y2A R9A L14A]: the response (Binding activity) turned out to be 0.62.

The assay is the same for the next values; noted with them: with partner chain of the complex shown; scFv1 50 µg/mL.
As to chain 2 GAQLASEIAGTIPASS [chain 2 Y2A R9A L14A], the EC50 (lg EC50 (µg/mL)) came to 3.57.

The same assay, now with this note: with partner chain of the complex shown; scFv1 50 µg/mL; value read at the highest peptide concentration, log10 = 2 (µg/mL); parent: 1.9; read off a plot.
On to chain 2 GAQLASEIAGTIPASS [chain 2 Y2A R9A L14A], for which the response (Binding activity) was determined as 0.58.

Another assay covers variants of B3. Nature of the assay: indirect ELISA. The following applies: with partner chain of the complex shown, scFv1 protein 50 µg/mL, value read at the highest peptide concentration, parent: 1.3, read off a plot.
Turning to chain 2 NIEAGAAVALEM [chain 2 W4A D6A E7A D9A], the response (Binding activity) stood at 0.53.

Still in this assay, the particulars now being: with partner chain of the complex shown; peptides 50 µg/mL; scFv1 group of bars; parent: 1.3; read off a plot.
For chain 2 NIEAGAAVALEM [chain 2 W4A D6A E7A D9A], the response (Binding activity) is 0.52.

Still in this assay, the particulars now being: with partner chain of the complex shown; scFv1 50 µg/mL.
Consider chain 2 NIEAGAAVALEM [chain 2 W4A D6A E7A D9A], for which the EC50 (lg EC50 (µg/mL)) was 4.17.

The assay is the same for the next values; noted with them: with partner chain of the complex shown; scFv1 50 µg/mL; value read at the highest peptide concentration, log10 = 2 (µg/mL); parent: 0.77; read off a plot.
In the case of chain 2 NIEAGAAVALEM [chain 2 W4A D6A E7A D9A], the response (Binding activity) was determined as 0.47.
